Experimental data: patent publication US20200071382A1 (published 2020)

Biological target: T1, BMP9 (UniProt Q9UK05 320-429)
T1 construct: Ligand injected over the captured receptor protein
T1 sequence (looked up): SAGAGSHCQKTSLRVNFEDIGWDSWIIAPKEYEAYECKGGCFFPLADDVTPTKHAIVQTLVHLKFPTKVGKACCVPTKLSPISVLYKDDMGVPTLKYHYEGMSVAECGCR
Experiment: Biacore SPR; protein captured by anti-Fc antibody, ligand injected
Experimental: These protein complexes were independently captured in the system using an anti-Fc antibody. Ligands were injected and allowed to flow over the captured receptor protein. Results are summarized in the table below, in which ligand off-rates (kd) most indicative of effective ligand traps are denoted by bold text.

Kd: > 36 nM
B1: ENG(26-346)-Fc:Fc monomeric complex (Fc fusion)
chain: ETVHCDLQPVGPERDEVTYTTSQVSKGCVAQAPNAILEVHVLFLEFPTGPSQLELTLQASKQNGTWPREVLLVLSVNSSVFLHLQALGIPLHLAYNSSLVTFQEPPGVNTTELPSFPKTQILEWAAERGPITSAAELNDPQSILLRLGQAQGSLSFCMLEASQDMGRTLEWRPRTPALVRGCHLEGVAGHKEAHILRVLPGHSAGPRTVTVKVELSCAPGDLDAVLILQGPPYVSWLIDANHNMQIWTTGEYSFKIFPEKNIRGFKLPDTPQGLLGEARMLNASIVASFVELPLASIVSLHASSCGGRLQTSPAPIQTTPPTGGGTHTCPPCPAPELLGGPSVFLFPPKPKDTLMISRTPEVTCVVVDVSHEDPEVKFNWYVDGVEVHNAKTKPREEQYNSTYRVVSVLTVLHQDWLNGKEYKCKVSNKALPAPIEKTISKAKGQPREPQVYTLPPSRKEMTKNQVSLTCLVKGFYPSDIAVEWESNGQPENNYKTTPPVLKSDGSFFLYSKLTVDKSRWQQGNVFSCSVMHEALHNHYTQKSLSLSPGK
